# Assay results taken from publication PMC2120063 (The Journal of Cell Biology, 1994).
# Assays:
# [1] = target: T1, rabbit skeletal muscle actin (rabbit, UniProt P68135 1-377); test: pyrene-actin polymerisation kinetics
# [2] = target: T1, rabbit skeletal muscle actin; test: pyrene-actin polymerisation kinetics; remark: listed apart in the source
# [3] = target: T1, rabbit skeletal muscle actin; test: co-sedimentation
Binder,Kd [1],Kd [2],Kd [3],stoichiometry N [3]
full-length epitope-tagged recombinant chick cardiac muscle tensin (natural protein) MDFGSVMNQAATPCSPAVNYELPSPGQSITKQVDTPDATRSPRGGQAHRKASRSMSVTAAMESSCELDLVYITERIIAVSYPSTAEEQSFRSNLREVAHMLKSKHGDNYVLFNLSERRHDISKLHPKVLDFGWPDLHTPALEKICSICKAMDTWLNAAAHNVVVLHNKGNRGRLGVVVAAYMHYSNISASADQALDRFAMKRFYEDKVVPVGQPSQKRYIHYFSGLLSGSIKMNNKPLFLHHVIMHGIPNFESKGGCRPFLKIYQAMQPVYTSGIYNVQGDSQTGICITIEPGLLLKGDILLKCYHKKFRSPTRDVIFRVQFHTCAVHDLDIVFGKEDLDEAFRDERFPEYGKVEFVFSYGPEKIQGMEHLENGPSVSVDYNTSDPLIRWDSYENFNIQREDSTEGTWAEPALPGKHLEKEVGHTQGPLDGSLYAKVKKKDSLHGSIGAVNAARLPLSAAPNHVEHTLSVSSDSGNSTASTKTDRTDEPGAPGAPTGHAVLSPEEKRELDRLLVGFGLESAPPMHNHAPGPAPARLPAGPGRHVVPAQVHVNGAGTPLLAERETDILDDELPNQDGHSVGSLGTLSSLDGTTTASEAGFHEAPRVGSLSSLPNGPASYNGAEKMLKEGLYEAEPLSNGAYPYSNQNTLMGHHLRDPLAHLRPSASAQEHLAGYPQRQPASTSPAWLQPPVPQPYLYGYDLPSAHRSQSFPAVGTAKYEANLALPQAPARSTSSREAVQRGLNSWQQQGGSRPPSQLHDGGLESHSPSLSSCSPQPSPLQPMPPHSHSMPEFPRAPSRREIEQSIEALDVLMLDLAPSVHKSQSVPSAATRQDKPAAMLSSLSAQPLSGHYAQPTPQVVQPRSFGTSVGTDPLAKAYSPGPLVPAARSTAEPDYTVHEYRETYTPYSYQPVPEPRSYGSAPASILPLSASYSPAGSQQLLVSSPPSPTAPAQSQLPHKGLESYEDLSRSGEEPLNLEGLVAHRVAGVQSREKSPEESTVPARRRTPSDSHYEKSSPEPGSPRSPTVLSPEVVSTIAANPGGRPKEPHLHSYKEAFEEMESASPSSLTSGGVRSPPGLAKTPLSALGLKPHNPADILLHPVGELEGEAGADSEEEPRSYVESVARTATTGRAGNLPAAQPVGLEVPARNGAFGNSFTVPSPVSTSSPIHSVDGASLRSYPSEGSPHGTVTPPHAVAETAYRSPMVSQTPSAHSSYQTSSPSSFQAGTLGSPYASPDYPDGRAGFQPDPQARQQPQVSVVGVHALPGSPRTLHRTVATNTPPSPGFGRRAANPAVASVPGSPGLGRHTVSPHAPPGSPSLARHQMAAVPPGSPMYGYSSPEERRPTLSRQSSASGYQPPSTPSFPVSPAYYPGTSTPHSSSPDSAAYRQGSPTPQPALPEKRRMSAGERSNSLPNYATVNGKASSPLSSGMSSPSSGSAVAFSHTLPDFSKFSMPDISPETRANVKFVQDTSKYWYKPDISREQAIALLKDREPGAFIIRDSHSFRGAYGLAMKVASPPPTVMQQNKKGDITNELVRHFLIETSPRGVKLKGCPNEPNFGCLSALVYQHSIMPLALPCKLVIPDRDPMEEKKDAASTTNSATDLLKQGAACNVLFINSVEMESLTGPQAISKAVAETLVADPTPTATIVHFKVSAQGITLTDNQRKLFFRRHYPLNTVTFCDLDPQERKWTKTDGSGPAKLFGFVARKQGSTTDNVCHLFAELDPDQPAAAIVNFVSRVMLGSGQKR,10 to 100 nM,~20 nM,100 nM,11 actin subunits per tensin
GST-tensin p29(1-263) (domain or fragment) MDFGSVMNQAATPCSPAVNYELPSPGQSITKQVDTPDATRSPRGGQAHRKASRSMSVTAAMESSCELDLVYITERIIAVSYPSTAEEQSFRSNLREVAHMLKSKHGDNYVLFNLSERRHDISKLHPKVLDFGWPDLHTPALEKICSICKAMDTWLNAAAHNVVVLHNKGNRGRLGVVVAAYMHYSNISASADQALDRFAMKRFYEDKVVPVGQPSQKRYIHYFSGLLSGSIKMNNKPLFLHHVIMHGIPNFESKGGCRPFLKI,–,–,–,2 to 4 actin subunits per tensin fragment
